Patent publication US12698507B2, “Methods and compositions for conferring and/or enhancing herbicide tolerance using protoporphyrinogen IX oxidase of various cyanobacteria or variant thereof” (FarmHannong Co., Ltd., priority 2019, dated 2026)
Residue numbers refer to the chain shown, from its start. In names and notes the source's numbering stands.

B1: CyPPO19 V165C + I408W + F360V: variant of CyPPO19 PPO protein (SEQ ID NO: 1) (protein)
chain: MSEVDVAIVGGGLSGLSLAWRLQQSAPQYSVVLLEASDRLGGNITTQTAEGFVWELGPNSFAPTPALLQLIAEVGLQSELIRGDRHLPRYIYWRGQLYPLQPTRPLALATSNLLSPWGKVRAALGALGFVPPYLGSGDESVNSFFRRHLGQEVAERLVAPFVSGCYAGDPQQLSAAAAFRRIAQLEKLGGGLIAGALHLRRQQAPKPKPPTSVQMRPGELGSFKEGLAALPRAIAQQLKAPIHLQTPVQEITPDPKGGYLLRSGEQTWRARSVVLATPAYQTAELVAPFQPAIARVLATIPYPTVACVVLAYPAGLGRSVRPGFGVLIPRSQGIRTLGTIWSSCLFPQRTPAGWQVFTSVIGGATDPDLASLSEEAIVQQVQQDLNRLLDLPAAKARLLGMKVWRRAWPQYMVGYPEQWQQVTHALSQTPGLFLCSNYAEGVALGDRVEHGNRTAAAVAAYLSGGQP
modifications: Synthetic_PPO of Thermosynechococcus elongatus PKUAC-SCTE542 (comprising GenBank No. CP032152.1)
B2: CyPPO19 A167I + V305M + F360L: variant of CyPPO19 PPO protein (SEQ ID NO: 1) (protein)
chain: B1 chain with C165V, A167I, V305M, V360L, W408I
modifications: Synthetic_PPO of Thermosynechococcus elongatus PKUAC-SCTE542 (comprising GenBank No. CP032152.1)
B3: CyPPO19 V165C + I408W + F360T: variant of CyPPO19 PPO protein (SEQ ID NO: 1) (protein)
chain: B1 chain with V360T
modifications: Synthetic_PPO of Thermosynechococcus elongatus PKUAC-SCTE542 (comprising GenBank No. CP032152.1)

Each molecule was assayed on PPO-deficient BT3 E. coli (ΔPPO) (assay: PPO-inhibiting herbicide tolerance test of PPO variants in E. coli (growth on herbicide-containing LB agar)). Conditions: CyPPO19 variants in BT3 (ΔPPO) E. coli; LB agar with 0 to 2,000 μM herbicide, 37° C., dark, 16-20 hours.
Type: cell-based
Text: To enhance the PPO-inhibiting herbicide resistance of CyPPO19 and CyPPO18, PPO variant genes of the above example 2 were constructed. They were transformed to BT3 (ΔPPO) strain which is deficient of PPO activity and cultured in LB media with PPO-inhibiting herbicide, thereby examining whether growth of transformed BT3 was not inhibited.
BT3 competent cells were transformed with the pET303-CyPPO19 (wild type), pET303-CyPPO18 (wild type) plasmids, and those with a mutation(s) constructed (refer to example 2) via heat shock method, and were cultured in LB agar media containing ampicillin.
Single colony transformed with each CyPPO gene was cultured in 3 mL of LB broth (LPSS) containing ampicillin for more than 12 hours, and then was subcultured in LB broth until absorbance (OD600) reached 0.5 to 1. Then, it was diluted with LB broth to OD600=0.5. Again, the diluted solution was serially diluted 4 times by a factor of one tenth.
The LB agar media (LB 25 g/L, Bacto agar 12 g/L) containing ampicillin (100 μg/mL) and 0 to 2,000 μM of various herbicides were prepared. Herbicide solution stocks were all prepared in DMSO.
Then, 10 μL of each diluted solution of E. coli was dropped on the plate and cultured at 37° C. under dark for 16-20 hours. PPO-inhibiting herbicide resistance was evaluated with the extent of E. coli growth containing each gene was observed.
The extent of herbicide resistance was evaluated by the relative growth of variants to that of wild type, and listed in Tables 9 and 10 and FIGS. 3 to 32.
In Tables 9 and 10, the tolerance level of variants showing equivalent resistance to wild type was presented as ‘−’, and was done as ‘+’ per each 10-fold resistance until ‘+++++’ as maximal resistance.
FIGS. 3 to 30 and FIGS. 31 and 32 show the transformed E. coli growth result of CyPPO19 WT and its variants and CyPPO18 WT and its variants, respectively. The concentrations of herbicides were written above the photographs of tolerance test. A 10-fold dilution series of spots were shown from OD600=0.5 of the leftmost spot to OD600=0.00005 of the rightmost one.

Q: For B1, which “tolerance level relative to wild type, Carfentrazone” value is on record?
A: The value was “+ (‘+’ per each 10-fold resistance)”.

Q: And the “tolerance level relative to wild type, Flumioxazin” value?
A: Its value is “++++ (‘+’ per each 10-fold resistance)”.

Q: And the “tolerance level relative to wild type, Fomesafen” value?
A: The value was “+++ (‘+’ per each 10-fold resistance)”.

Q: What about the “tolerance level relative to wild type, Oxyfluorfen” value of the same molecule?
A: The value was “++++ (‘+’ per each 10-fold resistance)”.

Q: What about the “tolerance level relative to wild type, Saflufenacil” value of the same molecule?
A: The value was “++++ (‘+’ per each 10-fold resistance)”.

Q: What about the “tolerance level relative to wild type, Sulfentrazone” value of the same molecule?
A: The value was “+++ (‘+’ per each 10-fold resistance)”.

Q: And the “tolerance level relative to wild type, Tiafenacil” value?
A: The value was “++++ (‘+’ per each 10-fold resistance)”.

Q: Which results are given for B2?
A: tolerance level relative to wild type, Carfentrazone: + (‘+’ per each 10-fold resistance); tolerance level relative to wild type, Flumioxazin: +++++ (until ‘+++++’ as maximal resistance); tolerance level relative to wild type, Fomesafen: +++ (‘+’ per each 10-fold resistance); tolerance level relative to wild type, Oxyfluorfen: +++ (‘+’ per each 10-fold resistance); tolerance level relative to wild type, Saflufenacil: +++++ (until ‘+++++’ as maximal resistance); tolerance level relative to wild type, Sulfentrazone: +++++ (until ‘+++++’ as maximal resistance); tolerance level relative to wild type, Tiafenacil: +++++ (until ‘+++++’ as maximal resistance)

Q: B3 was tested. Which “tolerance level relative to wild type, Carfentrazone” value did it give?
A: Its value is “+ (‘+’ per each 10-fold resistance)”.

Q: And the “tolerance level relative to wild type, Flumioxazin” value?
A: The value was “++++ (‘+’ per each 10-fold resistance)”.

Q: And the “tolerance level relative to wild type, Fomesafen” value?
A: The value was “+ (‘+’ per each 10-fold resistance)”.

Q: And the “tolerance level relative to wild type, Oxyfluorfen” value?
A: Its value is “++ (‘+’ per each 10-fold resistance)”.

Q: What about the “tolerance level relative to wild type, Saflufenacil” value of the same molecule?
A: The value was “++++ (‘+’ per each 10-fold resistance)”.

Q: And the “tolerance level relative to wild type, Sulfentrazone” value?
A: Its value is “+++ (‘+’ per each 10-fold resistance)”.

Q: What about the “tolerance level relative to wild type, Tiafenacil” value of the same molecule?
A: The value was “++++ (‘+’ per each 10-fold resistance)”.
